Test results: patent US5079230A, “Stable bioactive somatotropins” (Pitman-Moore, Inc., priority 1988, dated 1992)

T1: porcine liver membranes (Sus scrofa, UniProt P19756)
T1 construct: porcine liver membranes; from tissue; host or cells: porcine liver membranes
T1 sequence (P19756 19-638): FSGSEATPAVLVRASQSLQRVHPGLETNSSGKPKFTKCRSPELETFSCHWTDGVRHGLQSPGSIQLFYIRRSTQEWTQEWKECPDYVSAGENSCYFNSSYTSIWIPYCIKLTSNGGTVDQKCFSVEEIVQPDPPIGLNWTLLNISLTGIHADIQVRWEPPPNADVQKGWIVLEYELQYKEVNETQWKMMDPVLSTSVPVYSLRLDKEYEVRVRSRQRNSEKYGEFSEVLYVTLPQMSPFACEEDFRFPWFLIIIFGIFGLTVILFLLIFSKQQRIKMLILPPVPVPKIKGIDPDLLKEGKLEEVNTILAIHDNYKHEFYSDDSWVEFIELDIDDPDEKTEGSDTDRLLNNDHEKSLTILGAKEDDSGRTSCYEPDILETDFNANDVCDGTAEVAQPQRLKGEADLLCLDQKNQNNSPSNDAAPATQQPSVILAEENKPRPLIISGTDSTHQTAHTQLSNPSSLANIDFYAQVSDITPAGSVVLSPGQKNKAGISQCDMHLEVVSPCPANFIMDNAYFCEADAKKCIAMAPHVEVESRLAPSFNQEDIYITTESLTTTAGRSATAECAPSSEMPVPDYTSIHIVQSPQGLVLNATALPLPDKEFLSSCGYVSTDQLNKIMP

T2: pregnant rabbit liver membranes (Oryctolagus cuniculus, UniProt P19941)
T2 construct: pregnant rabbit liver membranes; from tissue; host or cells: liver membranes of pregnant rabbits
T2 sequence (P19941 19-638): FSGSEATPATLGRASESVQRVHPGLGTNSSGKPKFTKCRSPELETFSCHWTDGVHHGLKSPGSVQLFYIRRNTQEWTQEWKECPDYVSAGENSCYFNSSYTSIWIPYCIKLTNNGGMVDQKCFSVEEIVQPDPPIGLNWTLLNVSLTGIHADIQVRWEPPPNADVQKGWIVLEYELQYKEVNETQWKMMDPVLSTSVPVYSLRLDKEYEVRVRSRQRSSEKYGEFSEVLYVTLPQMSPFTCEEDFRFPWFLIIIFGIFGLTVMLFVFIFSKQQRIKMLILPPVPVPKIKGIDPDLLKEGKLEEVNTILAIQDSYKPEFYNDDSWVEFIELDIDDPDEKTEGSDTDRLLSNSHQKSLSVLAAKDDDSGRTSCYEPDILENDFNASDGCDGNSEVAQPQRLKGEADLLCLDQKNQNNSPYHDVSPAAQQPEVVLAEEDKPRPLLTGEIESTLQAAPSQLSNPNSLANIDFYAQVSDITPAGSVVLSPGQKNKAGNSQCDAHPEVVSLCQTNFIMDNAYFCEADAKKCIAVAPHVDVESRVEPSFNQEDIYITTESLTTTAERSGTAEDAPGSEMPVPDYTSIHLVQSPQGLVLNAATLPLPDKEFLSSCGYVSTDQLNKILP

B1: pST Standard: pST standard of the hypox rat assay; footnote mentions pituitary derived pST standard (protein, UniProt P01248 27-216, looked up)
Somatotropin: FPAMPLSSLFANAVLRAQHLHQLAADTYKEFERAYIPEGQRYSIQNAQAAFCFSETIPAPTGKDEAQQRSDVELLRFSLLLIQSWLGPVQFLSRVFTNSLVFGTSDRVYEKLKDLEEGIQALMRELEDGSPRAGQILKQTYDKFDTNLRSDDALLKNYGLLSCFKKDLHKAETYLRVMKCRRFVESSCAF
B2: non-derivatized rpST: unmodified recombinant porcine somatotropin produced in E. coli ATCC 53031 (protein, UniProt P01248 27-216, looked up)
Somatotropin: B1 Somatotropin
modifications: E. coli recombinant
B3: Dialyzed Zn-rpST: dialyzed zinc recombinant porcine somatotropin (protein, UniProt P01248 27-216, looked up)
Somatotropin: B1 Somatotropin
modifications: zinc form
notes: dialyzed zinc recombinant porcine somatotropin
B4: small-loop derivatized rpST: recombinant porcine somatotropin with small-loop disulfide reduced with 2-mercaptoethanol and sulfhydryls carbamidomethylated with iodoacetamide (Example 1) (protein, UniProt P01248 27-216, looked up)
Somatotropin: B1 Somatotropin
modifications: small-loop cysteines carbamidomethylated
B5: Non-derivatized Zn-rpST: zinc form of non-derivatized recombinant porcine somatotropin (protein, UniProt P01248 27-216, looked up)
Somatotropin: B1 Somatotropin
modifications: zinc form
notes: zinc form of non-derivatized recombinant porcine somatotropin
B6: Small-loop derivatized Zn-RpST: zinc form of small-loop derivatized recombinant porcine somatotropin (protein, UniProt P01248 27-216, looked up)
Somatotropin: B1 Somatotropin
modifications: zinc form; small-loop cysteines carbamidomethylated
notes: zinc form of small-loop derivatized recombinant porcine somatotropin

Legend:
[1] = test system: hypophysectomized (hypox) rats; assay: body weight gain in hypophysectomized (hypox) rats; assay type: in vivo, rat; conditions: for % Weight Gain Mean: hypox rats, 24 ug pST/day for 9 days, weight gain over a 10 day period; for % Relative Bioactivity: relative to the pituitary derived pST standard tested at similar concentration, 24 ug
Experimental: The relative bioactivity and biopotency of non-derivatized rpST and small-loop derivatized rpST prepared according to the method of Example 1 was determined by measuring the body weight gain in hypophysectomized (hypox) rats. Four (4) groups of 10 hypox rats per group received 24 μg pST/day of pST standard, dialyzed Zn-rpST, small-loop derivatized Zn-rpST, or non-derivatized Zn-rpSt for 9 days. Rats were monitored daily and their body weight gains recorded over a 10 day period. The weight gain was measured and the percent relative bioactivity calculated as a percent of standard.

porcine liver membranes = molecular target: T1, porcine liver membranes; assay: binding activity in porcine liver membranes (homologous somatotropin radioreceptor assay); conditions: relative to unmodified (non-derivatized) rpST = 100%
Experimental: The bioactivity of non-derivatized rpST and small-loop derivatized rpST prepared according to the method of Example 1 was determined using binding activity in porcine liver membranes according to a modification of the method in Haro et al., Homologous Somatotropin Radio Receptor Assay Utilizing Recombinant Bovine Growth Hormone, Mol. Cell Endocrinol., 38:109-116 (1985).

[2] = molecular target: T2, pregnant rabbit liver membranes; assay: pST binding assay using pregnant rabbit liver membranes and 125I-labelled rpST; conditions: calculated from the IC-50 data relative to the standard
Experimental: The bioactivity of non-derivatized rpST and small-loop derivatized rpST prepared according to the method of Example 1 was determined by pST binding assays using pregnant rabbit liver membranes and ^125 I-labelled rpST. A modified version of the assay disclosed in Tsushima et al., Radioreceptor Assay for Growth Hormone, J. Clin. Endocrinol. Metab., 37:334-337 (1973) was used: The rpST sample was incubated at 30° C. for 3.5 hours with 16,000 cpm ^125 I-rpST. The range of concentration used for the displacement curve of the rpST standard and small-loop derivatized rpST was between 0.38-200 ng/ml. Additional information for the pST binding assay are described in Tsushima et al., Radioreceptor Assay for Growth Hormone, J. Clin. Endocrinol. Metab., 37:334-337 (1973).

[3] = stability in the wetted state, rpST monomer recovery; assay type: physicochemical; conditions: 5 mg wetted with Tris-HCl pH 7.4 or carbonate buffer pH 9.8, 14 days at 37° C.; compared with non-derivatized rpST
Experimental: Non-derivatized rpST and small-loop derivatized rpST (prepared with IA according to Example 1) containing 5 mg/ml were dialyzed against 0.46 mM carbonate buffer an lyophilized to produce dry rpST samples for further testing. Five mg of dry small-loop derivatized and non-derivatized rpST were wetted with 0.01 ml of 50 mM Tris-HCl, pH 7.4, 0.05% sodium azide or 46 mM carbonate buffer, pH 9.8, 0.05% sodium azide. The paste was allowed to incubate for 14 days at 37° C. At the end of this time, the rpST was diluted to a final concentration of about 1.8 mg/ml in 46 mM carbonate buffer, pH 9.8, sonicated in a Branisonic 220 sonicator for several minutes, and centrifuged at 15,000×G for 5 minutes. The supernatant was analyzed for monomer content by the chromatographic procedure described in Example 6.

[4] = solution stability, rpST monomer by Superose-12 size-exclusion chromatography; assay type: physicochemical; conditions: 8 mg/ml, carbonate buffer pH 9.8 or phosphate buffered saline pH 7.4, 37° C., 0.6-120 days; compared with non-derivatized rpST
Experimental: 8 mg/ml non-derivatized rpST and small-loop derivatized rpST (prepared with IA according to Example 1) solutions containing 0.5% sodium azide were prepared in either 46 mM carbonate buffer (pH 9.8) or phosphate buffered saline (pH 7.4). Aliquots of 1.25 ml were incubated in Eppendorf Microcentrifuge tubes for 0.6, 4.6, 8.8, 22 and 120 days at 37° C.
At the end of each incubation period the aliquots were removed and analyzed for rpST monomer using Superose-12 size-exclusion chromatography with a mobile phase of 46 mM carbonate buffer (pH 9.8).

Molecule	relative bioactivity ([1]; at equivalent dose when the ST was dissolved in 9.5 high pH buffer)	% Weight Gain Mean [1]	% Relative Bioactivity [1]	activity (porcine liver membranes)	percent activity [2]	recovery of rpST monomer [3]	percentage of monomer recovered [4]
B1	51%	23.1%	55%	–	–	–	–
B2	–	14.4%	–	100%	about 75%	–	–
B3	–	14.4%	62%	–	–	–	–
B4	–	13.5%	–	125%	181%	much greater	higher percentage of monomer recovered
B5	–	17.1%	74%	–	–	–	–
B6	–	13.5%	58%	–	–	–	–
